Legend:
Test in all cases: cell-based or functional assay
[1] = molecular target: HIV-1 Env of isolate 92TH021 (subtype AE) (HIV-1)
[2] = molecular target: HIV-1 Env of isolate MGRM-AE-004 (subtype AE) (HIV-1)
[3] = molecular target: HIV-1 Env of isolate MGRM-G-004 (HIV-1)
[4] = molecular target: HIV-1 Env of isolate MGRM-G-009 (HIV-1)
[5] = molecular target: HIV-1 Env of isolate MGRM-G-025 (HIV-1)
[6] = molecular target: HIV-1 Env of isolate MGRM-G-027 (HIV-1)
[7] = molecular target: HIV-1 MGRM-AG-005 Env (pseudovirus) (HIV-1)
[8] = molecular target: HIV-1 Env of isolate 92WR009 (HIV-1)
[9] = molecular target: HIV-1 Env of isolate 92WR020 (HIV-1)
[10] = molecular target: HIV-1 Env of isolate APV-17 (HIV-1)
[11] = molecular target: HIV-1 Env of isolate MG RM-D-020 (HIV-1)
[12] = molecular target: HIV-1 Env of isolate MGRM-A-004 (HIV-1)
[13] = molecular target: HIV-1 Env of isolate MGRM-C-026 (pseudovirus) (HIV-1)
[14] = molecular target: HIV-1 Env of isolate MGRM-Chronic-B-012 (subtype B) (HIV-1)
[15] = molecular target: HIV-1 Env of pseudovirus isolate MGRM-G-024 (HIV-1)
[16] = molecular target: HIV-1 envelope glycoprotein (Env) of isolate MGRM-C-017 (HIV-1)
[17] = molecular target: HIV-1 envelope glycoprotein (Env) of isolate MGRM-C-024 (HIV-1)
[18] = molecular target: HIV-1 93UG077 Env (pseudovirus, clade A) (HIV-1)
[19] = molecular target: HIV-1 APV13 Env (pseudovirus, clade B) (HIV-1)

4995_E20 (PGT-142) (antibody), sequence (VH): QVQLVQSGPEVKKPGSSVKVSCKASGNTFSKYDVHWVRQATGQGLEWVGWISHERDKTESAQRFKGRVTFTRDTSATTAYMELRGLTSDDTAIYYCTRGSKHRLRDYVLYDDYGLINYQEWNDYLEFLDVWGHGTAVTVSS
4995_E20 (PGT-142) (antibody), sequence (VL): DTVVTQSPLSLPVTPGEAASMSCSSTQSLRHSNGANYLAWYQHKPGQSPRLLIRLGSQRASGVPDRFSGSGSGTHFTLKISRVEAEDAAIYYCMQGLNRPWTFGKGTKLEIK
5329_C19 (PGT-136) (antibody), sequence (VH): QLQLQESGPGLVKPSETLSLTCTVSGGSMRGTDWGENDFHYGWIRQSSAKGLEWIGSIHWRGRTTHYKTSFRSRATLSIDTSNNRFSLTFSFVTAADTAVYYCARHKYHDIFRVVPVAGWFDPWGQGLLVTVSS
5329_C19 (PGT-136) (antibody), sequence (VL): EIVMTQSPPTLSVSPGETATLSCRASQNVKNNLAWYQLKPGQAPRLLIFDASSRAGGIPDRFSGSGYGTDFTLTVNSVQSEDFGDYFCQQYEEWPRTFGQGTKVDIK
4970_K22 (PGT-144) (antibody), sequence (VH): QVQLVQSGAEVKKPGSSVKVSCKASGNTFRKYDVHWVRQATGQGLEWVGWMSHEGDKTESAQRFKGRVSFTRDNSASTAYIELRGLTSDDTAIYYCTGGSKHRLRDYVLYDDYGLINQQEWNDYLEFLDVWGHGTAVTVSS
4970_K22 (PGT-144) (antibody), sequence (VL): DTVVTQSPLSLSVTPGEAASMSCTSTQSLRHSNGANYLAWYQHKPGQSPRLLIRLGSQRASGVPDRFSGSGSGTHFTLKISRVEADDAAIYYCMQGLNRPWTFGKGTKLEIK
5345_I01 (PGT-137) (antibody), sequence (VH): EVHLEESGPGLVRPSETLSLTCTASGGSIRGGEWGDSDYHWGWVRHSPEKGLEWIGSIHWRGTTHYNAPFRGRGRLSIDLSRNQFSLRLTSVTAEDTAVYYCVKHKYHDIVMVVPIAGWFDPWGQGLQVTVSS
5345_I01 (PGT-137) (antibody), sequence (VL): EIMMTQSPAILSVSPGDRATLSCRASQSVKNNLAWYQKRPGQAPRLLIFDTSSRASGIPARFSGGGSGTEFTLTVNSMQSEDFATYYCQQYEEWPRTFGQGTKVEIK

## 4970_K22 (PGT-144) (antibody)
[1]
  IC50 (µg/mL), pseudovirus neutralization: 0.052 µg/mL
[2]
  IC50 (µg/mL), pseudovirus neutralization: 0.104 µg/mL
[3]
  IC50 (µg/mL), pseudovirus neutralization: > 50 µg/mL
[4]
  IC50 (µg/mL), pseudovirus neutralization: > 50 µg/mL
[5]
  IC50 (µg/mL), pseudovirus neutralization: > 50 µg/mL
[6]
  IC50 (µg/mL), pseudovirus neutralization: > 50 µg/mL
[7]
  IC50 (neutralizing activity, pseudovirus): > 10 µg/mL

## 5345_I01 (PGT-137) (antibody)
[1]
  IC50 (µg/mL), pseudovirus neutralization: > 50 µg/mL
[8]
  IC50: > 50 µg/mL
[9]
  IC50: 0.005 µg/mL
[10]
  neutralization IC50: > 50 µg/mL
[11]
  IC50 (µg/mL), pseudovirus neutralization: > 50 µg/mL
[12]
  IC50: > 50 µg/mL
[2]
  IC50 (µg/mL), pseudovirus neutralization: > 50 µg/mL
[13]
  Primary Neutralization Index (B cell culture supernatant): 11.3
[14]
  IC50 neutralization: > 50 µg/mL
[15]
  IC50 (µg/mL), pseudovirus neutralization: 0.051 µg/mL
[16]
  IC50 (µg/mL), pseudovirus neutralization: > 50 µg/mL
[17]
  IC50 (µg/mL), pseudovirus neutralization: > 50 µg/mL

## VRC01 (antibody)
[1]
  IC50 (µg/mL), pseudovirus neutralization: 0.616 µg/mL
[11]
  IC50: 0.192 µg/mL
[2]
  IC50 (µg/mL), pseudovirus neutralization: 0.187 µg/mL
[3]
  IC50 (µg/mL), pseudovirus neutralization: > 50 µg/mL
[4]
  IC50 (µg/mL), pseudovirus neutralization: 0.073 µg/mL
[5]
  IC50 (µg/mL), pseudovirus neutralization: 0.292 µg/mL
[6]
  IC50 (µg/mL), pseudovirus neutralization: 0.36 µg/mL

## 5114_A19 (PGT-128) (antibody)
[1]
  IC50 (µg/mL), pseudovirus neutralization: 0.01 µg/mL
[8]
  IC50: 0.812 µg/mL
[9]
  IC50: 0.005 µg/mL
[10]
  neutralization IC50: 0.016 µg/mL
[11]
  IC50 (µg/mL), pseudovirus neutralization: 0.011 µg/mL
[12]
  IC50: > 50 µg/mL
[2]
  IC50 (µg/mL), pseudovirus neutralization: > 50 µg/mL
[13]
  Polyclonal Transfectant Neutralization Index: 32.2
  Primary Neutralization Index (B cell culture supernatant): 17.1
[14]
  IC50 neutralization: 0.026 µg/mL
[15]
  IC50 (µg/mL), pseudovirus neutralization: 0.095 µg/mL
[16]
  IC50 (µg/mL), pseudovirus neutralization: 1.06 µg/mL
[17]
  IC50 (µg/mL), pseudovirus neutralization: > 50 µg/mL

## 5329_C19 (PGT-136) (antibody)
[18]
  IC50 neutralization: > 10 µg/mL
[19]
  IC50 neutralization: > 10 µg/mL
[1]
  IC50 (µg/mL), pseudovirus neutralization: > 50 µg/mL
[8]
  IC50: > 50 µg/mL
[9]
  IC50: 2.33 µg/mL
[10]
  neutralization IC50: > 50 µg/mL
[11]
  IC50 (µg/mL), pseudovirus neutralization: > 50 µg/mL
[12]
  IC50: > 50 µg/mL
[2]
  IC50 (µg/mL), pseudovirus neutralization: > 50 µg/mL
[13]
  Primary Neutralization Index (B cell culture supernatant): 6
[14]
  IC50 neutralization: 43.1 µg/mL
[15]
  IC50 (µg/mL), pseudovirus neutralization: 0.152 µg/mL
[7]
  IC50 (neutralizing activity, pseudovirus): > 10 µg/mL
[16]
  IC50 (µg/mL), pseudovirus neutralization: > 50 µg/mL
[17]
  IC50 (µg/mL), pseudovirus neutralization: > 50 µg/mL

## 5147_N06 (PGT-130) (antibody)
[18]
  IC50 neutralization: > 10 µg/mL
[19]
  IC50 neutralization: 0.0345 µg/mL
[1]
  IC50 (µg/mL), pseudovirus neutralization: 0.009 µg/mL
[8]
  IC50: 1.27 µg/mL
[9]
  IC50: 0.039 µg/mL
[10]
  neutralization IC50: 10.7 µg/mL
[11]
  IC50 (µg/mL), pseudovirus neutralization: 24.7 µg/mL
[12]
  IC50: > 50 µg/mL
[2]
  IC50 (µg/mL), pseudovirus neutralization: 2.43 µg/mL
[13]
  Polyclonal Transfectant Neutralization Index: 1.05
  Primary Neutralization Index (B cell culture supernatant): 3
[14]
  IC50 neutralization: 0.373 µg/mL
[15]
  IC50 (µg/mL), pseudovirus neutralization: 5.84 µg/mL
[7]
  Neutralization by PGT-130, IC50: 0.947 µg/mL
  Neutralization by PGT-130, IC80: > 10 µg/mL
  Neutralization by PGT-130, IC90: > 10 µg/mL
  Neutralization by PGT-130, IC95: > 10 µg/mL
  neutralization IC50 (pseudovirus): 0.947 µg/mL
[16]
  IC50 (µg/mL), pseudovirus neutralization: > 50 µg/mL
[17]
  IC50 (µg/mL), pseudovirus neutralization: > 50 µg/mL

## 4995_E20 (PGT-142) (antibody)
[1]
  IC50 (µg/mL), pseudovirus neutralization: 0.002 µg/mL
[2]
  IC50 (µg/mL), pseudovirus neutralization: 0.001 µg/mL
[3]
  IC50 (µg/mL), pseudovirus neutralization: > 50 µg/mL
[4]
  IC50 (µg/mL), pseudovirus neutralization: 2.81 µg/mL
[5]
  IC50 (µg/mL), pseudovirus neutralization: > 50 µg/mL
[6]
  IC50 (µg/mL), pseudovirus neutralization: > 50 µg/mL
[7]
  IC50 (neutralizing activity, pseudovirus): 0.22 µg/mL

## PGV04 (antibody)
[3]
  IC50 (µg/mL), pseudovirus neutralization: > 50 µg/mL
[4]
  IC50 (µg/mL), pseudovirus neutralization: 0.043 µg/mL
[5]
  IC50 (µg/mL), pseudovirus neutralization: 1.61 µg/mL
[6]
  IC50 (µg/mL), pseudovirus neutralization: 0.125 µg/mL

Reference: patent publication US20250320281A1
